From patent publication US20230272047A1 (University of Washington, published 2023)
Changes are numbered by the printed parent chain. Names may count otherwise. One block for each binder: values may come before it.

Legend:
[1] = target: T1, human transferrin receptor 1 ectodomain, biotinylated (human, UniProt P02786 89-760, biotinylated in vitro (Avidity kit) at the C-terminal Avi tag); assay: single concentration biolayer interferometry (1 µM design)
T1 construct: extracellular domain; Expressed as IgK-sFLAG-His-Sen-TEV-TfR1-his-Avi in the Daedalus system; The N-terminal expression tag was cleaved with TEV; In yeast display it was detected with streptavidin-phycoerythrin; also called hTfR; hTfR ectodomain; not shown: C-terminal his-Avi tag (printed 'his-Avin')
T1 sequence (P02786 89-760): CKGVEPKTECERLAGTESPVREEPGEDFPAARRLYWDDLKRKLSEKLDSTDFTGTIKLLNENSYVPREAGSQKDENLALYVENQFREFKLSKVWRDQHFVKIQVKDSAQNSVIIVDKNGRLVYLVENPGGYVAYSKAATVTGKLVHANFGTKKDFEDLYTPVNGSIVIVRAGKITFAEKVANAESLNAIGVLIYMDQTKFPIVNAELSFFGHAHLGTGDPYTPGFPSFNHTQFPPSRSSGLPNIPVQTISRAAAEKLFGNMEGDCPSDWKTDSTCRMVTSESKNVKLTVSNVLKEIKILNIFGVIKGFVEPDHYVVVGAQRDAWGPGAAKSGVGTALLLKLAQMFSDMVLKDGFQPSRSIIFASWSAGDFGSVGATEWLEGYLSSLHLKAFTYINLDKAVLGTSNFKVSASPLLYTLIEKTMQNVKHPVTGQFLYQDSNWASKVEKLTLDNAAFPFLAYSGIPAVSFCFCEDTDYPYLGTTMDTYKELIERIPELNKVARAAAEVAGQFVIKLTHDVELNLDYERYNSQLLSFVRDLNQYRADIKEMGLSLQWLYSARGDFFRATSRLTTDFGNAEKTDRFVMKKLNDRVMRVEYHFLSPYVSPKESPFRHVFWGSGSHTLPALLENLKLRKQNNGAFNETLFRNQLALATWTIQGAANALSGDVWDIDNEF

[2] = target: T1, human transferrin receptor 1 …; assay: biolayer interferometry, biotinylated hTfR on streptavidin biosensors
[3] = target: T1, human transferrin receptor 1 …; assay: single concentration biolayer interferometry, biotinylated hTfR on streptavidin biosensors

B1: 3DS10 (designed binder)
chain: TEEERLREEVKRVAQRAEEEGANEEEIAQILLLALNAAVVVVVESEEQAERVAQYIREVVPEALVIVYNNFVVIFVESDEAARRAWEAAERAQ
notes: Expressed in E. coli; the N-terminal His tag was cleaved with TEV
binding result [1]: binds

B2: 3DS2 (designed binder)
chain: TEDEEYEERVREALEEAKKKNEHNEELVAQIALLILGAVVVIVAESEEAAKRAAQYVRERVPNAKVYVFDNFVFVHAESREDQEAAWRAAQEAM
notes: as for B1
binding result [1]: binds

B3: 2DS25 (purified from E. coli) (designed binder)
chain: DEEEIQKAIEELLRKGVSEEEAAIIIAQRFNVAVVVVVQDERQAKHISEYIRRYIPEADVILFANIVVIKVETEELRKRVWEAAQKAY
notes: Expressed in E. coli with an N-terminal histidine tag and a TEV site; Eluted as a monomer on SEC
binding result [2]: binds

Second part, the binder after the results:

binding result [3]: no binding
B4: 2DS25_KO (W81A/Q85A) (designed binder)
chain: B3 chain with W81A, Q85A

binding result [1]: binds
B5: 3DS23 (designed binder)
chain: DEEEEEKEEIRRQLDEARERGVSEEEAAIEVAQNFNFIVVVVVDSEEEAERVAEYVRREVPRVHIVIVQNVVFFRVDSDEDARRVWELAQKAQ
notes: as for B1

binding result [1]: binds
B6: 3DS11 (designed binder)
chain: DLEERVRKAVNEAQEEAKRNNLDENEAALEAALRLGVVVLVVVDSEEQAERVAKYVHKLVPSVRVVIYNNLVFFHVDTDEEARRVYEAAERAQ
notes: as for B1

binding result [1]: binds
B7: 3DS6 (designed binder)
chain: DKEDELRELAKELVREYEKRGVSEEEIALLVALAANFAVVIVFDNEEQAERAAKYIKKKLPSAVIVIFNNFVFVYVDSREDERIAWELAQEAQ
notes: as for B1
